Changes are numbered by the printed parent chain.
B1: 77D10 anti-PCSK9 antibody (IgG2b) (antibody, V domains shown)
VH: EVQLQQSGAELVRSGASVKLSCTTSGFNIKDYYIHWVKQRPEQGLEWIGWIDPENGDTEYAPKFQGKATMTADTSSNTAYLQLSSLTSADTAVYYCNAYYRYDDGTWFPYWGQGTLVTVSA
VL: DIQLTQSPASLSASVGETVTITCRASGNIHSYLAWYQQKQGKSPQFLVDNAKTLPDGVPSRFSVSGSGTQYSLKINSLQPEDFGTYYCQHFWNTPWTFGGGTKLEIKR
B2: 29C10 anti-PCSK9 antibody (IgG2a) (antibody, V domains shown)
VH: EVLLQQSVAELVRPGASVRLSCTASGFNIKDTYIHWVRQRPEQGLEWFGWIDPANGYTKYAPNFQGKATLTTDTSSNTAYLHLSSLTSEDSAIYYCARGYYRYYSLDYWGQGTSVTVSS
VL: DIQMTQTTSSLSASLGDRVTISCRASQDISNYLNWYQQKPDGTVKLLIYYSSRLHSGVPSRFSGRGSGTDYSLTISTLEQEDIATYFCQQGKTLPLTFGAGTKLELKR
B3: 75B9 anti-PCSK9 antibody (IgG2a) (antibody, V domains shown)
VH: EVQLQQSGADLVKPGASVKLSCTASGFNIKDTYIHWVKQRPEQGLEWIGRIDPANGHTEYDPKFQGRATLTTDTSSNTAYLQLFSLTSEDSAVYFCARSYYGSIFAYWGQGTLVTVSA
VL: QIVLTQSPAIMSASPGEKVTISCSASSSVSYLFWYQQKPGSSPKPWIFRTSYLASGVPARFSGSGSGTSFSLTISSMEAEDAATYYCHQYHTYPPTFGGGTKLEIKR
B4: 11B5 anti-PCSK9 antibody (IgG2a) (antibody, V domains shown)
VH: EVQLQQSGAELVKPGASVTLSCTASGFNIKDTYMHWVNQRPEQGLVWIGRIDPANGHTEYDPKFQDKATITTDTSSNTAYLHLSSLTSGDTAVYYCARSYFGSIFAYWGQGTLVTVSA
VL: B3 VL with F33Y, T50S, Y52H, L53R, F70Y, H91Q, T92S

How the values were obtained:
[1] = target: mouse liver LDL receptor (C57BL/6j mice) (mouse) (UniProt P35951); assay: cell-based or functional assay
[2] = target: T1, Purified PCSK9 carrying a C-terminal FLAG tag (UniProt Q8NBP7 31-692); assay: AlphaScreen, inhibition of PCSK9-Flag/His-tagged LDL receptor interaction, relative to no antibody
T1 construct: also called PCSK9-FLAG; PCSK9-Flag; not shown: C-terminal FLAG tag
Method: (§1) This technique required that “donor” and “acceptor” beads be brought into proximity via protein—protein interaction, resulting in increased luminescence (Ullman et al., Proc. Nat. Acad. Sci. (1994) 91:5426-5430). […] About 2.5 μl of biotinylated anti-Flag-M2 antibody (1.8 μg/ml) was added and the mixture incubated for 1 hour. Afterward 5 μl of streptavidin donor bead and nickel chelate acceptor bead (1:1 mixture) was added and the assay incubated overnight. AlphaScreen signal (counts per second) was analyzed using an EnVision microplate reader (Perkin-Elmer). All data points were determined in triplicate. Assays were carried out at 23° C. in buffer containing 25 mM HEPES, 0.1 M NaCl, pH 7.4, 0.1% BSA. The inhibition assays were determined similarly with slight adjustments to assay volumes and protein concentrations.

[3] = target: T1, Purified PCSK9 carrying a C-terminal …; assay: AlphaScreen, inhibition of PCSK9-Flag/His-tagged LDL receptor interaction
Method: as §1

T1 sequence (Q8NBP7 31-692 limits assumed): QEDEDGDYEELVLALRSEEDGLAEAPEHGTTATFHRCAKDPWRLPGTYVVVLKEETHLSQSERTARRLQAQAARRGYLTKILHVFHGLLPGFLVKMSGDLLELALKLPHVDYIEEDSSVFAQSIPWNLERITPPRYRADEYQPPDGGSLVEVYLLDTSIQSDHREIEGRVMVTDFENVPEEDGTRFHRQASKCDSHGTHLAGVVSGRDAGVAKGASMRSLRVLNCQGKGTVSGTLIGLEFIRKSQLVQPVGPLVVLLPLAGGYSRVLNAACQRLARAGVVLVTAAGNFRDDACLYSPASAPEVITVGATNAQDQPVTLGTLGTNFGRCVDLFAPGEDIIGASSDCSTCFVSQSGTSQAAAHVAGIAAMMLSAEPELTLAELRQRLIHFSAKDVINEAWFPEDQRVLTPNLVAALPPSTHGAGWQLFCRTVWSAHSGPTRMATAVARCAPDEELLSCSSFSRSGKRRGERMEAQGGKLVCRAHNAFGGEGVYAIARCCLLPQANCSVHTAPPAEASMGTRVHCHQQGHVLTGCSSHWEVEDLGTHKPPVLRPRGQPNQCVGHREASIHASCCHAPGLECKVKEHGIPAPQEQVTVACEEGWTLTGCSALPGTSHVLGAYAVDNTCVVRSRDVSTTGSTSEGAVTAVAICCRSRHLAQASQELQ
Sequence of mouse liver LDL receptor (C57BL/6j mice) (mouse) (P35951 22-862): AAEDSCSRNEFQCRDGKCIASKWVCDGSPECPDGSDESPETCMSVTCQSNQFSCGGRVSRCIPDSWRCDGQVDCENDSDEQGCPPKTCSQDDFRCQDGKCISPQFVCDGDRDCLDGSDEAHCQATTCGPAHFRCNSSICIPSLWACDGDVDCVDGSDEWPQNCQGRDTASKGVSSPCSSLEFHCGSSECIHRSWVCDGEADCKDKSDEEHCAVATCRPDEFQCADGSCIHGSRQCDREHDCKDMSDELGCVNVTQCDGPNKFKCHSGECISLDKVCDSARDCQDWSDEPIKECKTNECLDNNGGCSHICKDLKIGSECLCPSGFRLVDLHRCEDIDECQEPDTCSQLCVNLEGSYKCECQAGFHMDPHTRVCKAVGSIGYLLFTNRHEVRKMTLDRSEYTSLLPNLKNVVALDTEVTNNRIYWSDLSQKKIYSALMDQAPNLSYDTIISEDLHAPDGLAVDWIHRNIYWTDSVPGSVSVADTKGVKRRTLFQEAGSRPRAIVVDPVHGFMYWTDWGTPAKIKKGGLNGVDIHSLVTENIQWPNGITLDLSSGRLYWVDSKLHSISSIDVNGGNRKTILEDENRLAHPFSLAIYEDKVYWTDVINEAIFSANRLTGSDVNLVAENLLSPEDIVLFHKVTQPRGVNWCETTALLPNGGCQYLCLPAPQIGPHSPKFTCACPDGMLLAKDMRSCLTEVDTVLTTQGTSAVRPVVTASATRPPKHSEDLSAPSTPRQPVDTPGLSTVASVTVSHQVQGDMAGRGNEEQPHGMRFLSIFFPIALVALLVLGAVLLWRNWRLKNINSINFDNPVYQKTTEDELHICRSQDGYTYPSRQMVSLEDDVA

Molecule	% inhibition at 450 nM of antibody [2] [%]	IC50 [3] [nM]	further results
human PCSK9 Protein (injected intravenously into mice) (from UniProt Q8NBP7 31-692) (enzyme)	–	–	% Change of mean liver LDLR/GAPDH against saline only, mice given Saline and PCSK9 (darker exposure) [1]: -78.8%; % Change of mean liver LDLR/GAPDH against saline only, mice given Saline and PCSK9 (lightest exposure) [1]: -82%; Mean liver LDLR/GAPDH, mice given Saline and PCSK9 (western blot, darker exposure of LDLR panel) [1]: 0.123 AU
human PCSK9 Protein (injected intravenously into mice) (from UniProt Q8NBP7 31-692)	–	–	Mean liver LDLR/GAPDH, mice given Saline and PCSK9 (western blot, lightest exposure) [1]: 0.081 AU
B1	62	38	–
B2	71	13	–
B3	100	0.5	–
B4	100	0.4	–

— patent publication US20140161798A1 (Merck Sharp & Dohme, published 2014)
